Columns and labels:
[1] = biological target: FAM-labelled RBBP5 peptide (residues 330–363) mixed with ASH2L(SPRY) (human) (UniProt Q15291); test: fluorescence polarisation
MLL3 SET domain = MLL3 SET domain (human, UniProt Q8NEZ4 4757-4911); test: crystal structure
Chain of MLL3 SET domain (human, UniProt Q8NEZ4 4757-4911) (Q8NEZ4 4757-4911): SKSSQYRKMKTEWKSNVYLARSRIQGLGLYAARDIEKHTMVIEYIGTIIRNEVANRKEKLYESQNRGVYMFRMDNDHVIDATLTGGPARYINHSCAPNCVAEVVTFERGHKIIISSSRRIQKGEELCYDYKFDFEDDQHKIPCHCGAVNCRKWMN

Chain of MLL1 SET domain (Q03164 3829-3945): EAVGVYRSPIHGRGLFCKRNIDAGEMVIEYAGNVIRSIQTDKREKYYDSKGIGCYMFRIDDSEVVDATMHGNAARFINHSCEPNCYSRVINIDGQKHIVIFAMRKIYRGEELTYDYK
Chain of MLL3 SET domain (from UniProt Q8NEZ4 4757-4911) (domain or fragment) (Q8NEZ4 4757-4911): as the sequence (Q8NEZ4 4757-4911) above

| Kd [1] | binding result (MLL3 SET domain) | Molecule |
| --- | --- | --- |
| > 100000 nM | – | MLL1 SET domain (from UniProt Q03164 3829-3945) (domain or fragment) |
| 100 nM | – | MLL3 SET domain (from UniProt Q8NEZ4 4757-4911) (domain or fragment) |
| – | binds | ARTKQTARK [H3 peptide (H3 residues 1–9)] |

Source: article PMC5125619 (Nature, 2016)
